Assay results from paper PMC5320947 (Angewandte Chemie (International ed. in English), 2016).

Tests used:
[1] = design: species or system mice; conditions: mouse, in vivo
[2] = tested on: fed blood glucose levels in C57BL/6J mice; assay type: in vivo

Row | Substance | area under the curve (AUC) [1] [%h/mL] | terminal elimination phase T1/2β [1] [h] | total body clearance (CL) rate [1] [mL/h] | duration of blood glucose reduction after a single s.c. injection [2]
1 | green fluorescent protein [native GFP] | 14 | 4 | 7 | 
2 | exendin–C–PMPC75k: exendin–4 C–terminal conjugate with zwitterionic PMPC, larger conjugate |  |  |  | up to 3 days
